The values that follow come from patent US20260232732A1 (FUNDACI INSTITUT DE RECERCA CONTRA LA LEUC MIA JOSEP …, published 2026).

Where no end group is shown, it is not given here. The star is where a group is joined. Biotin = O=C1N[C@H]2[C@H](CS[C@H]2CCCCC(=O)*)N1

For one test, the target named is T1, naked peptide MTPTDFTSPI (human).
T1 peptide: MTPTDFTSPI
The test is described as follows: ELISA naked peptide; scFv 1 ug/mL; repII. How it is done:
(§1) The peptides were synthesized naked or with a N-terminal Biotin modification with a purity of >98%. All four scFvs were verified by ELISA that can be detected with anti-His antibodies. ELISA was performed for scFv-peptide binding validation. Briefly, naked peptides were coated (50 μg/mL) in 0.58M carbonate-bicarbonate buffer pH9.5, 100 μL/well, 4° C. O/N. Then after blocking (3% BSA-PBS, 300 μL/well 37° C. 1.5 h) and washing (PBS+Tween-20 0.05% v/v (0.05% PBST), wells were incubated with each purified scFv antibody at concentration of 1 μg/mL in PBS at 37° C. 1 h. After washing (0.05% PBST), wells were incubated with secondary antibodies (goat anti-His IgG-HRP) in PBS, 37° C., 30 min. After washing, and incubation with TMB substrate, reactions were stopped with 2M HCl and reading was quantified at OD450.
(§2) Then a library of overlapping peptides were designed and constructed separately to produce 16 different peptides, covering full antigen sequence of total 48 aa. Peptide size was 10aa, with 7aa overlapping and ELISA screening of scFv against each peptide was performed in duplicate. Screening was performed using naked peptides in a standard plate or biotinylated peptides using avidin-plates.
(In general: ELISA stands for enzyme-linked immunosorbent assay.)

The next test concerns the target T2, naked peptide TDFTSPIPNM (human).
T2 peptide: TDFTSPIPNM
Nature of the test: ELISA naked peptide; scFv 1 ug/mL; repII. On the procedure:
as §1, §2

The target of the next test is T3, naked peptide TSPIPNMADD (human).
T3 peptide: TSPIPNMADD
The test is described as follows: ELISA naked peptide; scFv 1 ug/mL; repII. How it is done:
as §1, §2

A further test deals with T4, naked peptide IPNMADDYGS (human).
T4 peptide: IPNMADDYGS
Nature of the test: ELISA naked peptide; scFv 1 ug/mL; repII. How it is done:
as §1, §2

For the next test, the target named is T5, naked peptide MADDYGSEST (human).
T5 peptide: MADDYGSEST
Nature of the test: ELISA naked peptide; scFv 1 ug/mL; repII. How it is done:
as §1, §2

In a further test the target is T6, naked peptide DYGSESTSSM (human).
T6 peptide: DYGSESTSSM
The test is described as follows: ELISA naked peptide; scFv 1 ug/mL; repII. On the procedure:
as §1, §2

For the next test, the target named is T7, naked peptide SESTSSMEDY (human).
T7 peptide: SESTSSMEDY
The test is described as follows: ELISA naked peptide; scFv 1 ug/mL; repII. On the procedure: as §1, §2

In a further test the target is T8, naked peptide TSSMEDYVNF (human).
T8 peptide: TSSMEDYVNF
The test is described as follows: ELISA naked peptide; scFv 1 ug/mL; repII. How it is done: as §1, §2

The target in a further test is T9, naked peptide SSMEDYVNFN (human).
T9 peptide: SSMEDYVNFN
The test is described as follows: ELISA naked peptide; scFv 1 ug/mL; repII. On the procedure:
as §1, §2

A further test concerns the target T10, naked peptide SMEDYVNFNF (human).
T10 peptide: SMEDYVNFNF
Nature of the test: ELISA naked peptide; scFv 1 ug/mL; repII. On the procedure:
as §1, §2

The target of another test is T11, naked peptide MEDYVNFNFT (human).
T11 peptide: MEDYVNFNFT
Nature of the test: ELISA naked peptide; scFv 1 ug/mL; repII. On the procedure:
as §1, §2

In another test the target is T12, naked peptide YVNFNFTDFY (human).
T12 peptide: YVNFNFTDFY
The test is described as follows: ELISA naked peptide; scFv 1 ug/mL; repII. How it is done: as §1, §2

Another test addresses T13, naked peptide FNFTDFYCEK (human).
T13 peptide: FNFTDFYCEK
The test is described as follows: ELISA naked peptide; scFv 1 ug/mL; repII. On the procedure:
as §1, §2

In the next test the target is T14, naked peptide TDFYCEKNNV (human).
T14 peptide: TDFYCEKNNV
The test is described as follows: ELISA naked peptide; scFv 1 ug/mL; repII. On the procedure:
as §1, §2

The target of another test is T15, naked peptide YCEKNNVRQF (human).
T15 peptide: YCEKNNVRQF
Nature of the test: ELISA naked peptide; scFv 1 ug/mL; repII. How it is done:
as §1, §2

For another test, the target named is T16, naked peptide KNNVRQFAS (human).
T16 peptide: KNNVRQFAS
Nature of the test: ELISA naked peptide; scFv 1 ug/mL; repII. On the procedure:
as §1, §2

Test [1] has as its target T17, biotin-peptide MTPTDFTSPI (human, also: prints MTPTDFTSP, without I10).
T17 peptide: Biotin-MTPTDFTSPI
Nature of the test: ELISA biotin-peptide; scFv 10 ug/mL; repII. On the procedure: as §1
ELISA with biotin-conjugated peptides (5 μg/mL) was performed very similar to described above with minor modifications.

B1: Comparative antibody 2 (Comp-2) scFv, 243LO326 (VH SEQ ID NO: 51 and VL SEQ ID NO: 52 of WO 2022/195028 A2), His-tagged (scFv)
scFv: QVQLVQSGAEVKKPGASVKVSCKASGYTFTSYWMHWVRQAPGQGLEWIGVIYPGNSDTRYNQKFKGRVTITRDTSASTAYMELSSLRSEDTAVYYCTRDYYSNYVYYYAMDYWGQGTTVTVSSGGGGSGGGGSGGGGSGGGGSDIVMTQTPLSLPVTPGEPASISCRSSQSLVHPNRNTYLHWYLQKPGQSPQLLIYKVSNRFSGVPDRFSGSGSGTDFTLKISRVEAEDVGVYYCSQSTHVPWTFGQGTKLEIKHHHHHH
Regarding B1, the OD450 with naked peptide MTPTDFTSPI was found to be 0.03 OD; with naked peptide TDFTSPIPNM it was 0.05 OD; in the test with naked peptide TSPIPNMADD, 0.02 OD; in the test with naked peptide IPNMADDYGS, 0.02 OD; with naked peptide MADDYGSEST it was 0.02 OD; in the test with naked peptide DYGSESTSSM it was 0.02 OD. Moreover, the OD450 with naked peptide SESTSSMEDY was 0.02 OD; in the test with naked peptide TSSMEDYVNF it was 0.03 OD; with naked peptide SSMEDYVNFN it was 0.09 OD; with naked peptide SMEDYVNFNF it was 0.03 OD; with naked peptide MEDYVNFNFT, 0.04 OD; with naked peptide YVNFNFTDFY, 0.01 OD. Moreover, the OD450 with naked peptide FNFTDFYCEK came to 0.03 OD; with naked peptide TDFYCEKNNV, 0.03 OD; with naked peptide YCEKNNVRQF it was 0.07 OD; with naked peptide KNNVRQFAS it was 0.04 OD; in [1] it was 0.1 OD.

B2: Comparative antibody 3 (Comp-3) scFv, SR_92R (Somovilla-Crespo et al. 2018), His-tagged (scFv)
scFv: EVKLEESGGGLVQPGGSMKLSCVASGFTFNKFWMNWVRQSPEKGLEWVAEIRLKSNNYATHYAESVKGRFTISRDDSKSSVYLQMNNLRAEDTGIYYCASDGWFAYWGQGTLVTVSAGGGGSGGGGSGGGGSGGGGSDVVMTQTPLSLPVSLGDQASISCRSSQSLVHSNGNTYLNWCLQRPGQSPKSLIYKVSNRFSGVPDRFSGSGSGTDFTLKISRVEAEDLGVYFCSQSTHFPRTFGGGTKLEIKRHHHHHH
Turning to B2, the OD450 amounted to 0.04 OD in the test with naked peptide MTPTDFTSPI; 0.08 OD with naked peptide TDFTSPIPNM; 0.04 OD with naked peptide TSPIPNMADD; 0.04 OD in the test with naked peptide IPNMADDYGS; 0.04 OD in the test with naked peptide MADDYGSEST; 0.03 OD in the test with naked peptide DYGSESTSSM. The OD450 in the test with naked peptide SESTSSMEDY is 0.04 OD; in the test with naked peptide TSSMEDYVNF it was 0.03 OD; in the test with naked peptide SSMEDYVNFN, 0.08 OD; with naked peptide SMEDYVNFNF, 0.07 OD; with naked peptide MEDYVNFNFT, 0.06 OD; with naked peptide YVNFNFTDFY it was 0.01 OD. The OD450 worked out at 0.07 OD in the test with naked peptide FNFTDFYCEK; 0.04 OD in the test with naked peptide TDFYCEKNNV; 0.03 OD with naked peptide YCEKNNVRQF; 0.04 OD with naked peptide KNNVRQFAS; 0.13 OD in test [1].
